For experiment [1], the target named is T1, platelet fibrinogen receptor αIIbβ3 (GPIIb/IIIa) (Homo sapiens, UniProt P05106+P08514).
T1 construct: incubation of whole blood with different doses of abciximab (Reopro®); endogenous in cells; host or cells: platelets in donor whole blood
Description: Platelet adhesion to fibrinogen patterned substrate, whole blood preincubated with abciximab in vitro. The format is cell-based. An excerpt: The single platelet counting method enables high resolution and reproducible platelet adhesion and function assays in contrast with fluorescence measurements of platelet adhesion. The drug abciximab inhibits platelet adhesion to fibrinogen. […] We compare this platelet adhesion quantification method with a classical method which consists on the measure of the fluorescence intensity originated by the platelets adhering to the surface (which have been fluorescently labelled after adhesion took place). […] Subsequently the samples were washed with buffers, fixed and labelled using platelet specific antibodies fluorescently labelled. After the samples were mounted on microscopy glass slides and imaged. (i)-(iii) show single platelet arrays formed on 6 micron fibrinogen dots array; (iv)-(vi) show platelets adhering to 12 micron fibrinogen dots array; (vii)-(ix) show platelets adhering to 24 micron fibrinogen dots array. […] It is more difficult to quantify the number of platelets adhering to the 12 or 24 micron fibrinogen dots. The effect of the drug in platelet adhesion was quantified using two methods, single platelet counting method, and fluorescence method. (B) Graphs showing the fluorescence intensity measured on samples incubated with blood samples preincubated with different doses of abxicimab (x axes units: abciximab concentration (g/mL); y axes units: fluorescence, arbitrary units). (C) Graph showing the percentage of filled (occupied by platelets) dots on 6 microns fibrinogen dots array on samples incubated with blood samples preincubated with different doses of abxicimab (x axes units: abciximab concentration (g/mL); y axes units: percentage of 6 micron fibrinogen dots occupied by platelets).
In parallel flow cytometry is used to quantify the inhibition of fibrinogen-platelet binding resulting from incubation of whole blood with different doses of abciximab (Reopro®). To perform the measurements by flow cytometry, platelets were pre-activated with thrombin-receptor-activating peptide. […]

The target of the next experiment is T2, GP Ilb/IIIa receptor (Homo sapiens, UniProt P05106+P08514).
T2 construct: blood samples from 10 cardiovascular patients undergoing Percutaneous Coronary Interventions (PCI); endogenous in cells; host or cells: platelets in blood of PCI patients
Description: Platelet adhesion on fibrinogen patterned substrate in PCI patients before and after Reopro administration. The format is in vivo. Particulars: for platelet adhesion after administration: 0.25 mg/kg dose during PCI. On the procedure: The above in-vitro results were validated in a small-scale, targeted clinical study conducted at the Clinical Research Centre in Beaumont Hospital. The same protein patterned substrate was tested with blood samples from 10 cardiovascular patients undergoing Percutaneous Coronary Interventions (PCI). Three patients who received a 0.25 mg/kg dose of Reopro® during the procedure had their platelet adhesion measured using the method of the present invention before Reopro® administration (image i of FIG. 10), 10 minutes after Reopro® administration (image ii of FIG. 10), and between 20 and 24 hours after Reopro® administration (image iii of FIG. 10).
Multiple fluorescent dots on the grid indicates presence of adhering platelets (i).

In a further experiment the test system is platelets. Description: Platelet adhesion from whole blood on protein patterned surfaces (percentage of filled dots). Particulars: 2 μm dots array, four normal donors. The format is cell-based, human. As to the method: For the fabrication of protein patterns, specific platelet adhesive proteins or platelet antibodies were directly patterned on bare glass substrates by microcontact printing (FIG. 1a). After protein patterning the rest of the glass substrate was blocked with bovine serum albumin (BSA) to avoid non specific capture in non selected areas. Characterization of the protein pattern was carried out by immunofluorescence to assure good homogenous coverage of the protein pattern FIG. 14(ii) along all the patterned area. Samples were incubated with 1 mL of citrated or hirudinised whole blood for a maximum of 30 minutes.
The same blood sample exposed to a number of identical substrates gave small deviations; lower than 10%, in the platelet adhesion (FIG. 4b). We have quantified the platelet adhesion from whole blood on fibrinogen, vWF and anti-CD42b surfaces for four different normal donors. […]
The probability that a platelet is captured on a single spot depends on the probability that the platelet touches the protein spot, and on the binding affinity of the platelet for the protein matrix. […] We calculated the mean platelet adhesion on antibody, fibrinogen and vWF patterned surfaces on 2 μm and 6 μm dots arrays. […] A mean platelet adhesion of 45%, 10% and 15% were calculated for the antibody, the fibrinogen and the vWF surfaces, respectively. […]

Entries after “also recorded” stand apart in the source; their conditions may differ.

abciximab: the “platelet adhesion to the fibrinogen substrate after abciximab treatment” value in experiment [1] (blood preincubated with abciximab (20 μg/mL), 2 and 6 μm dot arrays) was “do not adhere to the fibrinogen substrate”. Moreover, in experiment [1] (in vitro, 1.5 μg/ml Reopro, CVD patients on aspirin and clopidogrel vs type 2 diabetes patients on aspirin), the “inhibition of platelet adhesion in CVD patients compared to the diabetic patients” value is “increased inhibition”. Besides, the “Reopro's effects on platelet adhesion across population groups” value in experiment [1] (in vitro, 1.5 μg/ml Reopro, normal donors, CVD patients, diabetic patients) is given as “effects appear greater in CVD patients than in normal or diabetic patients”. For the same substance, the “platelet adhesion after administration” value was “increasing adhesion” with GP Ilb/IIIa receptor (20-24 hours after administration) and “low adhesion; also recorded: limited platelet adhesion” in the experiment with GP Ilb/IIIa receptor (10 minutes after administration, listed as Reopro®, 0.25 mg/kg). Besides, the “platelet adhesion after administration (fluorescence images, one subject)” value with GP Ilb/IIIa receptor (21 h after administration) is given as “recovery of adhesiveness”.

fibrinogen: the mean platelet adhesion in the experiment on platelets stood at 10%.

For the substance von Willebrand factor [vWF], the mean platelet adhesion in the experiment with platelets was 15%.

(Values after US9939430B2, “Platelet analysis” (Dublin City University, priority 2008, dated 2018).)
